From publication PMC8184850, “Cryo-EM structure of TFIIH/Rad4–Rad23–Rad33 in damaged DNA opening in nucleotide excision repair” (Nature Communications, 2021)

Key:
[1] = biological target: T1, 10-subunit holoTFIIH (coreTFIIH with TFIIK: Kin28–Ccl1–Tfb3) (Saccharomyces cerevisiae | yeast, UniProt Q00578 1-843; P06839 1-778; P32776 1-642; Q02939 1-513; Q04673 1-461; Q12004 …); assay: co-sedimentation; 10–40% glycerol gradient (20 mM HEPES, 150 mM potassium acetate, 2 mM magnesium acetate, 4 mM DTT, 2 mM ATP or AMP-PNP), 52,000 rpm 6 h 35 min, 4 °C; Rad4–Rad23–Rad33 pre-assembled on −24*/+24 AAF-DNA, then added to TFIIH; fractions by SDS-PAGE; conditions: both partners purified
T1 construct: Ssl2 (XPB homologue), subunit of yeast TFIIH; Rad3 (XPD homologue), subunit of yeast TFIIH; Tfb1 (p62 homologue), subunit of yeast TFIIH; Tfb2 (p52 homologue), subunit of yeast TFIIH; Ssl1 (p44 homologue), subunit of yeast TFIIH; Tfb4 (p34 homologue), subunit of yeast TFIIH; Tfb5 (p8 homologue), subunit of yeast TFIIH; Kin28, kinase subunit of yeast TFIIK; Ccl1, cyclin subunit of yeast TFIIK; …

7-subunit coreTFIIH = biological target: T2, 7-subunit coreTFIIH (Saccharomyces cerevisiae | yeast, UniProt Q00578 1-843; P06839 1-778; P32776 1-642; Q02939 1-513; Q04673 1-461; Q12004 …); assay: co-sedimentation; factor challenge: Rad2 added (~6-fold molar excess) to TFIIH/Rad4–23–33/AAF-DNA with ATP, 60 min, then 10–40% glycerol gradient (150 mM potassium acetate, 2 mM ATP), 4 °C; SDS-PAGE and densitometry; conditions: both partners purified
T2 construct: Ssl2 (XPB homologue), ATPase/translocase subunit of yeast coreTFIIH; printed numbering runs to residue 843; Rad3 (XPD homologue), helicase subunit of yeast coreTFIIH; Tfb1 (p62 homologue), subunit of yeast coreTFIIH; Tfb2 (p52 homologue), subunit of yeast coreTFIIH; Ssl1 (p44 homologue), subunit of yeast coreTFIIH; Tfb4 (p34 homologue), subunit of yeast coreTFIIH; Tfb5 (p8 homologue), subunit of …

coreTFIIH (7 subunits) = coreTFIIH (7 subunits) (Saccharomyces cerevisiae? (yeast, tfb6 …, UniProt Q00578;P06839;P32776;Q02939;Q04673;Q12004;Q3E7C1 …)); assay: glycerol gradient sedimentation; ATP; EMSA: 20 mM HEPES, 100 mM K-acetate, 2 mM Mg-acetate, 5 mM DTT, room temperature 20 min, 250 nM each component, 0.2x TBE agarose gel at 4 C (pH not stated in this buffer); conditions: protein: native; tags: TAP tags on Tfb4 and Ssl2; TEV-treated; copies: 1;1;1;1;1;1;1; label: 32P 5' end (T4 PNK) in EMSA; 5' overhang on strand 1: 9 nt from printed strands (text says 10 nt)

B1: Rad4–Rad23–Rad33 complex (complex, yeast)
chain 1: MNEDLPKEYFELIRKALNEKEAEKAPLSRRRRVRRKNQPLPDAKKKFKTGLNELPRESVVTVNLDSSDDGVVTVPTDDSVEEIQSSEEDYDSEEFEDVTDGNEVAGVEDISVEIKPSSKRNSDARRTSRNVCSNEERKRRKYFHMLYLVCLMVHGFIRNEWINSKRLSRKLSNLVPEKVFELLHPQKDEELPLRSTRKLLDGLKKCMELWQKHWKITKKYDNVGLYMRTWKEIEMSANNKRKFKTLKRSDFLRAVSKGHGDPDISVQGFVAMLRACNVNARLIMSCQPPDFTNMKIDTSLNGNNAYKDMVKYPIFWCEVWDKFSKKWITVDPVNLKTIEQVRLHSKLAPKGVACCERNMLRYVIAYDRKYGCRDVTRRYAQWMNSKVRKRRITKDDFGEKWFRKVITALHHRKRTKIDDYEDQYFFQRDESEGIPDSVQDLKNHPYYVLEQDIKQTQIVKPGCKECGYLKVHGKVGKVLKVYAKRDIADLKSARQWYMNGRILKTGSRCKKVIKRTVGRPKGEAEEEDERLYSFEDTELYIPPLASASGEITKNTFGNIEVFAPTMIPGNCCLVENPVAIKAARFLGVEFAPAVTSFKFERGSTVKPVLSGIVVAKWLREAIETAIDGIEFIQEDDNRKEHLLGALESWNTLLLKLRIRSKLNSTYGKIAEEEPNVTKEQNIADNHDNTETFMGGGFLPGIANHEARPYSEPSEPEDSLDYVSVDKAEESATDDDVGEDYSDFMKELEMSEESD
chain 2: MVSLTFKNFKKEKVPLDLEPSNTILETKTKLAQSISCEESQIKLIYSGKVLQDSKTVSECGLKDGDQVVFMVSQKKSTKTKVTEPPIAPESATTPGRENSTEASPSTDASAAPAATAPEGSQPQEEQTATTERTESASTPGFVVGTERNETIERIMEMGYQREEVERALRAAFNNPDRAVEYLLMGIPENLRQPEPQQQTAAAAEQPSTAATTAEQPAEDDLFAQAAQGGNASSGALGTTGGATDAAQGGPPGSIGLTVEDLLSLRQVVSGNPEALAPLLENISARYPQLREHIMANPEVFVSMLLEAVGDNMQDVMEGADDMVEGEDIEVTGEAAAAGLGQGEGEGSFQVDYTPEDDQAISRLCELGFERDLVIQVYFACDKNEEAAANILFSDHAD
chain 3: MSKSTNVSYERVELFENPKVPIEVEDEILEKYAESSLDHDMTVNELPRFFKDLQLEPTIWKLVRNEDVIIEGTDVIDFTKLVRCTCQLLILMNNLTVIDDLWSMLIRNCGRDVDFPQVALRDHVLSVKDLQKISNLIGADQSSGTIEMISCATDGKRLFMTYLDFGCVLGKLGYLKM
notes: Rad4 (XPC homologue), yeast; Rad23 (RAD23B homologue), yeast; Rad33 (CETN2 homologue), yeast; plasmid pETDuet-RAD33; also called Rad4–23–33; yeast homologue of XPC–RAD23B–CETN2; copies: + +
binding result [1]: binds

B2: Rad2 (natural protein, yeast, UniProt P07276 1-1031, looked up)
chain: MGVHSFWDIAGPTARPVRLESLEDKRMAVDASIWIYQFLKAVRDQEGNAVKNSHITGFFRRICKLLYFGIRPVFVFDGGVPVLKRETIRQRKERRQGKRESAKSTARKLLALQLQNGSNDNVKNSTPSSGSSVQIFKPQDEWDLPDIPGFKYDKEDARVNSNKTFEKLMNSINGDGLEDIDLDTINPASAEFEELPKATQYLILSSLRLKSRLRMGYSKEQLETIFPNSMDFSRFQIDMVKRRNFFTQKLINTTGFQDGGASKLNEEVINRISGQKSKEYKLTKTNNGWILGLGANDGSDAQKAIVIDDKDAGALVKQLDSNAEDGDVLRWDDLEDNSLKIVRHESSNATTAPQKRSNRSEDEGCDSDECEWEEVELKPKNVKFVEDFSLKAARLPYMGQSLNNAGSKSFLDKRHDQASPSKTTPTMRISRISVEDDDEDYLKQIEEIEMMEAVQLSKMEKKPEADDKSKIAKPVTSKGTEARPPIVQYGLLGAQPDSKQPYHVTNLNSKSESVIKRTSKTVLSEFRPPSQQEDKGAILTEGEQNLNFISHKIPQFDFNNENSLLFQKNTESNVSQEATKEKSPIPEMPSWFSSTASQQLYNPYNTTNFVEDKNVRNEQESGAETTNKGSSYELLTGLNATEILERESEKESSNDENKDDDLEVLSEELFEDVPTKSQISKEAEDNDSRKVESINKEHRKPLIFDYDFSEDEEDNIVENMIKEQEEFDTFKNTTLSTSAERNVAENAFVEDELFEQQMKDKRDSDEVTMDMIKEVQELLSRFGIPYITAPMEAEAQCAELLQLNLVDGIITDDSDVFLFGGTKIYKNMFHEKNYVEFYDAESILKLLGLDRKNMIELAQLLGSDYTNGLKGMGPVSSIEVIAEFGNLKNFKDWYNNGQFDKRKQETENKFEKDLRKKLVNNEIILDDDFPSVMVYDAYMRPEVDHDTTPFVWGVPDLDMLRSFMKTQLGWPHEKSDEILIPLIRDVNKRKKKGKQKRINEFFPREYISGDKKLNTSKRISTATGKLKKRKM
notes: Rad2 (XPG homologue), yeast; plasmid pGVD52-RAD2HisSumo; also called yeast homolog of XPG; source: E. coli Rosetta(DE3), purified (HisTrap, Ulp1 cleavage, HisTrap flow-through, Heparin HP)
percent of TFIIH dissociated from Rad4–Rad23–Rad33 and bound to Rad2 (Rad2 in ~6-fold molar excess, ATP) (7-subunit coreTFIIH): ~50%

B3: -24*/+24 AAF (dsDNA)
DNA 1: CCCATTCCAACCATCCCACTACCTGTCCATCTTCACTCAACTATCACCC
DNA 2: GGGTGATAGTTGAGTGAAGATGGACAGGTAGTGGGATGGT
modifications: N-2-acetylaminofluorene adduct on the single G of strand 1 (nt 25, position 0)
binding result (coreTFIIH (7 subunits)): binds
